# From patent US20090192084A1
# How the values were obtained:
# PLAP (human) = PLAP (human) (UniProt Q9Y263); experiment: Flag co-IP, 293 cells, MudPIT MS
# Cullin 1 (human) [1] = biological target: Cullin 1 (human) (UniProt Q13616); experiment: Flag co-IP, MudPIT MS, DMSO
# Cullin 3 (human) [2] = biological target: Cullin 3 (human) (UniProt Q13618); experiment: Flag co-IP, MudPIT MS, DMSO
# [3] = biological target: Kelch repeat and BTB domain-containing protein 7, KBTB7 (human) (UniProt Q8WVZ9); experiment: Flag co-IP, MudPIT MS, DMSO
# [4] = biological target: Kelch-like protein 22. KLEIL22 (human) (UniProt Q53GT1); experiment: Flag co-IP, MudPIT MS, DMSO
# Praja 2 (human) = Praja 2 (human) (UniProt O43164); experiment: Flag co-IP, MudPIT MS, DMSO
# [5] = biological target: Retinoblastoma-associated factor 600, UBR4 (human) (UniProt Q5T4S7); experiment: Flag co-IP, MudPIT MS, DMSO
# SKP1 (human) [6] = biological target: SKP1 (human) (UniProt P63208); experiment: Flag co-IP, MudPIT MS, DMSO
# SKP1 (human), sequence (P63208 2-163 limits assumed): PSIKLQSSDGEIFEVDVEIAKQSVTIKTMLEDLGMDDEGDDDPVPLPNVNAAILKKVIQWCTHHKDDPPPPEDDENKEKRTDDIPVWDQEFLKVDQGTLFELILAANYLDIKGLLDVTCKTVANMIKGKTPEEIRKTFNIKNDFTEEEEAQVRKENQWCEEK
# UBR1 (human) = UBR1 (human) (UniProt Q8IWV7); experiment: Flag co-IP, MudPIT MS, DMSO
# UBR2 (human) [7] = biological target: UBR2 (human) (UniProt Q8IWV8); experiment: Flag co-IP, MudPIT MS, DMSO
# UBR2 (human), sequence (Q8IWV8 2-1755 limits assumed): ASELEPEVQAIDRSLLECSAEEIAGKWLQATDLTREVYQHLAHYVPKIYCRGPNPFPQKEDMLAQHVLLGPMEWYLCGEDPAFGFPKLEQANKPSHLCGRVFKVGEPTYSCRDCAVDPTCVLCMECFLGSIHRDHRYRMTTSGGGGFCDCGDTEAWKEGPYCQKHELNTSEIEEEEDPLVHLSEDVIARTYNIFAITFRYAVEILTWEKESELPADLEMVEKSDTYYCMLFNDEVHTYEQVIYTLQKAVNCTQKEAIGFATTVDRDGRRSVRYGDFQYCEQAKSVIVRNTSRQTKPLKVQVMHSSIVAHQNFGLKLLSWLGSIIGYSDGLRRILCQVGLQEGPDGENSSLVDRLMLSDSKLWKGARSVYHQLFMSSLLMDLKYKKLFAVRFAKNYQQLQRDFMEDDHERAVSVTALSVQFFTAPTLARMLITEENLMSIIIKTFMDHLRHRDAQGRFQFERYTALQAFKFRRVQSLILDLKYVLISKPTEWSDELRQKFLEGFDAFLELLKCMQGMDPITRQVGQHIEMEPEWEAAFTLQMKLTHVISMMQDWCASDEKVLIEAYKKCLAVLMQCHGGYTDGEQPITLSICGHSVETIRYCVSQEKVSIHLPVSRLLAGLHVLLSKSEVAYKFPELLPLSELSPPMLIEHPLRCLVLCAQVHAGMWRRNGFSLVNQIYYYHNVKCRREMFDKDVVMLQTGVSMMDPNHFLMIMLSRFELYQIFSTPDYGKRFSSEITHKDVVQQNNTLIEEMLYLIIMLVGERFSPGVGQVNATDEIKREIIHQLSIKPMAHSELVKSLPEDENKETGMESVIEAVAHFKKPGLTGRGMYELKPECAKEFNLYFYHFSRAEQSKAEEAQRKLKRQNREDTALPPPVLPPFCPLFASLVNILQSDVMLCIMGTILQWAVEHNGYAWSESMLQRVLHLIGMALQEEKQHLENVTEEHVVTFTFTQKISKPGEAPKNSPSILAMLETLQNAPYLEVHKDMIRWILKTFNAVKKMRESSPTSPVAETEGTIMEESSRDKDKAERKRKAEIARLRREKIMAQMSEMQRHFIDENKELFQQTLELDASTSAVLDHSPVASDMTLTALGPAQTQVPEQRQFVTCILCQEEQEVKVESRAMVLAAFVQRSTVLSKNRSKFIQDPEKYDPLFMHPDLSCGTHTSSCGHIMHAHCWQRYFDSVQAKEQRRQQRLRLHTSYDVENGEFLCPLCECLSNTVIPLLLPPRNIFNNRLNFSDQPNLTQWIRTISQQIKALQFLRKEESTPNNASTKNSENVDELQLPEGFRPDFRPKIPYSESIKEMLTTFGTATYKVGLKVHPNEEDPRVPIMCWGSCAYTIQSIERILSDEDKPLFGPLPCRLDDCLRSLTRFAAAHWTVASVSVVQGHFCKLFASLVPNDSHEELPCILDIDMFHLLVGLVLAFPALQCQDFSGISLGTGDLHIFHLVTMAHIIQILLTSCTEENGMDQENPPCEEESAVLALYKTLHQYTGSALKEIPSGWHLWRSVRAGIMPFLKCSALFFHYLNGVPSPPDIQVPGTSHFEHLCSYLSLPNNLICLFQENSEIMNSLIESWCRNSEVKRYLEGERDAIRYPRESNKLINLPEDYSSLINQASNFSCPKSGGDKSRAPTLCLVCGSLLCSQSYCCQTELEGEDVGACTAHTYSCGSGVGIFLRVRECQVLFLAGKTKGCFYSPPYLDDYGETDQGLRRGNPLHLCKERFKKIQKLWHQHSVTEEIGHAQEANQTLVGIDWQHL
# gp78 (human) [8] = biological target: gp78 (human) (UniProt Q9UKV5); experiment: Flag co-IP, MudPIT MS, DMSO
# [9] = biological target: CUL4- and DDB I-associated WDR protein 2, WDR26 (human) (UniProt Q9H7D7); experiment: Flag co-IP, MudPIT MS, MG132
# Cullin 1 (human) [10] = biological target: Cullin 1 (human) (UniProt Q13616); experiment: Flag co-IP, MudPIT MS, MG132
# Cullin 2 (human) = Cullin 2 (human) (UniProt Q13617); experiment: Flag co-IP, MudPIT MS, MG132
# Cullin 2 (human), sequence (Q13617 whole entry): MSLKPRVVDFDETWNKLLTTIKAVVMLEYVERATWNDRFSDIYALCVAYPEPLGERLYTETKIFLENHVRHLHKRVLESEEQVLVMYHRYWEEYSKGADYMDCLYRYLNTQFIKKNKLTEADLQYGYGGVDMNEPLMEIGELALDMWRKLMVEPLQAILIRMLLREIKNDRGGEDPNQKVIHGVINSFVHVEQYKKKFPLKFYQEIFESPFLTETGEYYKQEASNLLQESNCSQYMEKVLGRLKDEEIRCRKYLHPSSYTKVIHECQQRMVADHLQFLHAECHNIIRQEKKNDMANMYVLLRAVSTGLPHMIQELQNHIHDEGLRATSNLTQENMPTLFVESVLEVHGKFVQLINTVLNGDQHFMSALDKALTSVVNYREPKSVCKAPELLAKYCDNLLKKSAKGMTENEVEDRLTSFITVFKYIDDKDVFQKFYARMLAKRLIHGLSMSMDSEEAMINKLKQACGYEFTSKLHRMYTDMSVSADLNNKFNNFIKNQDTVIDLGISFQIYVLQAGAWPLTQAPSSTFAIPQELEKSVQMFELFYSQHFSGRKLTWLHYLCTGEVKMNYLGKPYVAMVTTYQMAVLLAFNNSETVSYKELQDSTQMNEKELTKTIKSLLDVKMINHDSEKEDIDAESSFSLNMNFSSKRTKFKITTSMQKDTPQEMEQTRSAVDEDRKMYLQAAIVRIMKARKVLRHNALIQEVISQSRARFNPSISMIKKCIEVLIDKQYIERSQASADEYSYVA
# Cullin 3 (human) [11] = biological target: Cullin 3 (human) (UniProt Q13618); experiment: Flag co-IP, MudPIT MS, MG132
# [12] = biological target: F-box//WD-repeat protein 1B, FBW1B (human) (UniProt Q9UKB1); experiment: Flag co-IP, MudPIT MS, MG132
# F-box//WD-repeat protein 1B, FBW1B (human), sequence (Q9UKB1 whole entry): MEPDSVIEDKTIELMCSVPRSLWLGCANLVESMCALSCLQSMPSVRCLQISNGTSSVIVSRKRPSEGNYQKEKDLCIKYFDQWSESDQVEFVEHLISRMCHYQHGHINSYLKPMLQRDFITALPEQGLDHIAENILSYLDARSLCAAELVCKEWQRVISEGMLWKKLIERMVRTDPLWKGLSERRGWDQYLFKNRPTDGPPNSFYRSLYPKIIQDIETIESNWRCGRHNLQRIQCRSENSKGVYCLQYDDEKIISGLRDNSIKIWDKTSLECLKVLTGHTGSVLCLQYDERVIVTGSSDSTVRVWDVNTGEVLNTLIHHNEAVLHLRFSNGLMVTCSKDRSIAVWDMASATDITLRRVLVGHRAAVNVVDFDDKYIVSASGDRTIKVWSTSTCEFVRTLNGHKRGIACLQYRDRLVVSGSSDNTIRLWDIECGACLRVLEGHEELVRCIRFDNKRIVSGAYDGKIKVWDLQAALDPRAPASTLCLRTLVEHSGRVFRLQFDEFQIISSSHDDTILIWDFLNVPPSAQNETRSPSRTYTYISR
# [13] = biological target: Kelch-like protein 22. KLEIL22 (human) (UniProt Q53GT1); experiment: Flag co-IP, MudPIT MS, MG132
# [14] = biological target: Retinoblastoma-associated factor 600, UBR4 (human) (UniProt Q5T4S7); experiment: Flag co-IP, MudPIT MS, MG132
# SKP1 (human) [15] = biological target: SKP1 (human) (UniProt P63208); experiment: Flag co-IP, MudPIT MS, MG132
# UBR2 (human) [16] = biological target: UBR2 (human) (UniProt Q8IWV8); experiment: Flag co-IP, MudPIT MS, MG132
# gp78 (human) [17] = biological target: gp78 (human) (UniProt Q9UKV5); experiment: Flag co-IP, MudPIT MS, MG132
# VCIP135 (human) = biological target: T1, VCIP135 (human) (UniProt Q96JH7); experiment: Flag co-IP, 293 cells, MudPIT MS
# T1 sequence (looked up): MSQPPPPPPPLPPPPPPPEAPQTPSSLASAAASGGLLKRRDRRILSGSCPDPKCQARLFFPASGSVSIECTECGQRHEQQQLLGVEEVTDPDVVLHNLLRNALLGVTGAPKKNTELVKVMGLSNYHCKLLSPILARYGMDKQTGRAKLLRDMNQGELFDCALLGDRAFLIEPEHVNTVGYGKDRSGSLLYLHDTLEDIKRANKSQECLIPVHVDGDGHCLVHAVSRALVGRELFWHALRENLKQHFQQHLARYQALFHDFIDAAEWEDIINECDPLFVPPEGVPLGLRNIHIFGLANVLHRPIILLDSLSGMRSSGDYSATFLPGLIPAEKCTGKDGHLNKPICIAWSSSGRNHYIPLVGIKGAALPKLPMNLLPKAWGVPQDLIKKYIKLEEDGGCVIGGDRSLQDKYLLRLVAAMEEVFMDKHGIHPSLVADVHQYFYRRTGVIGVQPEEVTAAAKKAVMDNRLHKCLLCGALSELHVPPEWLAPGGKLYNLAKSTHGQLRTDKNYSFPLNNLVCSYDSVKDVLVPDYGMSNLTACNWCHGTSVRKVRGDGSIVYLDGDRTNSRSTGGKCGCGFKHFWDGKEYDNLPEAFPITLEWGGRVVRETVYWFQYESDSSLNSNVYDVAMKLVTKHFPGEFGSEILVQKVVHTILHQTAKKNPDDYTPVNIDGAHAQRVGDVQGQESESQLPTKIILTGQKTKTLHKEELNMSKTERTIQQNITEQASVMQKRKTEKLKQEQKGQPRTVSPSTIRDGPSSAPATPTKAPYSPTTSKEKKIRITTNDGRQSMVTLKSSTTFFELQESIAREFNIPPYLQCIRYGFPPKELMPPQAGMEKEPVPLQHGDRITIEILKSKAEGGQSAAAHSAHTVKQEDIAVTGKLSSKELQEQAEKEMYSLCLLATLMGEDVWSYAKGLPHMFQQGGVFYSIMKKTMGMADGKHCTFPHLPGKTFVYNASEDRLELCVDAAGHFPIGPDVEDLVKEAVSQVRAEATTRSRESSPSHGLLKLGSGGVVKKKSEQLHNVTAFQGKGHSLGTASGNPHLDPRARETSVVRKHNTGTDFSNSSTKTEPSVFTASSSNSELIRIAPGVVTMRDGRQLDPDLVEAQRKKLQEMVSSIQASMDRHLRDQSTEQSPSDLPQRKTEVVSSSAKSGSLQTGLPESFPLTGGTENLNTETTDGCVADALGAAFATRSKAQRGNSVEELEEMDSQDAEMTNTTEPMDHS
# endogenous NPL4 (human) = endogenous NPL4 (human) (UniProt Q8TAT6); experiment: Flag co-IP, 293 cells, MudPIT MS
# endogenous UFD1 (human) = biological target: T2, endogenous UFD1 (human) (UniProt Q92890); experiment: Flag co-IP, 293 cells, MudPIT MS
# T2 sequence (looked up): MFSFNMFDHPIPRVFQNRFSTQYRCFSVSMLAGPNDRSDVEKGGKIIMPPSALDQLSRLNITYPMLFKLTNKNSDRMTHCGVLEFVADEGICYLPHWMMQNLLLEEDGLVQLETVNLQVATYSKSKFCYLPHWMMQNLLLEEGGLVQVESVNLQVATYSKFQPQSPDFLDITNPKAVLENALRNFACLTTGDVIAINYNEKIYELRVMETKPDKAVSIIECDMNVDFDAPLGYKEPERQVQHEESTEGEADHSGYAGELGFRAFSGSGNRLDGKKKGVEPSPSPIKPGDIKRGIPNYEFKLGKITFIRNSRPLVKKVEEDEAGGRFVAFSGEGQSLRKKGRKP
# endogenous p97 (human) = endogenous p97 (human) (UniProt P55072); experiment: Flag co-IP, 293 cells, MudPIT MS
# [18] = biological target: DNA damage-binding protein I. DDB1 (human) (UniProt Q16531); experiment: Flag co-IP, MudPIT MS, DMSO
# EDD1/UBR5 (human) = EDD1/UBR5 (human) (UniProt O95071); experiment: Flag co-IP, MudPIT MS, DMSO
# [19] = biological target: Galectin-3 binding protein. LG3BP (human) (UniProt Q08380); experiment: Flag co-IP, MudPIT MS, DMSO
# [20] = biological target: Ubiquitin conjugation factor E4 B, UBE4B (Ufd2ortholog) (human) (UniProt O95155); experiment: Flag co-IP, MudPIT MS, DMSO
# [21] = biological target: DNA damage-binding protein I. DDB1 (human) (UniProt Q16531); experiment: Flag co-IP, MudPIT MS, MG132
# [22] = biological target: Ubiquitin conjugation factor E4 B, UBE4B (Ufd2ortholog) (human) (UniProt O95155); experiment: Flag co-IP, MudPIT MS, MG132
# p97-Myc = p97-Myc co-IP, 293 cells, MudPIT MS
# PLAP (human), sequence (Q9Y263 whole entry): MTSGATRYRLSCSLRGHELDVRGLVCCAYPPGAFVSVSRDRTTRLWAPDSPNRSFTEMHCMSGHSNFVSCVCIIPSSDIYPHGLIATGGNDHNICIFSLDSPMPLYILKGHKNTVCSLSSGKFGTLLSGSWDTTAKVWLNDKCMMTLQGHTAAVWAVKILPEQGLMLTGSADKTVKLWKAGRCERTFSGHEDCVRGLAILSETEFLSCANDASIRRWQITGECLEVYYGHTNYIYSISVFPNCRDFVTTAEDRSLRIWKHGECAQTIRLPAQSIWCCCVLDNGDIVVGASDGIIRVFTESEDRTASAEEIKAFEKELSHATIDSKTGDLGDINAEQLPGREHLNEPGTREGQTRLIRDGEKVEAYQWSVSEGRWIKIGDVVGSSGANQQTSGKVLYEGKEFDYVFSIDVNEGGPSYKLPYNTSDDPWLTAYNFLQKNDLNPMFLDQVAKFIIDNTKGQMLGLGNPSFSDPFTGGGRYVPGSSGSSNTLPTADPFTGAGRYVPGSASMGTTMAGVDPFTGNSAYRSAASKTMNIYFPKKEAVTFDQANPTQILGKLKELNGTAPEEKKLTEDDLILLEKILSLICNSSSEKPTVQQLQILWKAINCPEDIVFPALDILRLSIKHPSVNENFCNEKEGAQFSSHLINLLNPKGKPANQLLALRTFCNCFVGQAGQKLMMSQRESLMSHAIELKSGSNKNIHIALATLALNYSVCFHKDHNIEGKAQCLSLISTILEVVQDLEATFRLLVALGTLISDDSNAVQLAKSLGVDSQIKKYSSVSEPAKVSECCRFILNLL
# Cullin 1 (human), sequence (Q13616 whole entry): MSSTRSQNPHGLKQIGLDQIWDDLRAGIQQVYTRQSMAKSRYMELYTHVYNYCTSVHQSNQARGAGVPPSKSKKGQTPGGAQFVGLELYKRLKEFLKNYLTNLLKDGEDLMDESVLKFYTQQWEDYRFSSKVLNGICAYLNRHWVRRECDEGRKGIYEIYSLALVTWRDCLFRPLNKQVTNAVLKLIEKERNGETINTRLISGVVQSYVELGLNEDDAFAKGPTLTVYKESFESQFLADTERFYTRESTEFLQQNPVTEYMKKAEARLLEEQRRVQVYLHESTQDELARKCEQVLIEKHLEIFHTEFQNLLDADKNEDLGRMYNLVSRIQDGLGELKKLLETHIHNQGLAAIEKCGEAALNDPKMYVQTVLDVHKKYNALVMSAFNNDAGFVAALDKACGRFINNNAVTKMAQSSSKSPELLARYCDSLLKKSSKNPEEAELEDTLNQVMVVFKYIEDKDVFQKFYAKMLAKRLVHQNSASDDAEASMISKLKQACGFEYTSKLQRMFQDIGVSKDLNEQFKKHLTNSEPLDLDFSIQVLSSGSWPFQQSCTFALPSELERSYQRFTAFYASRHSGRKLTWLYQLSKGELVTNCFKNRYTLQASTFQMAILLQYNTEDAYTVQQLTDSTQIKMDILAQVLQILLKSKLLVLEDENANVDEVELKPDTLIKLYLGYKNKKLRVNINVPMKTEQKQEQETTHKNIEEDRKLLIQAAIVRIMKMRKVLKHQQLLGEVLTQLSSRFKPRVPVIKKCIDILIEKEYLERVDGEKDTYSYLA
substance,measurement,setting,value
Flag-ASPL (from UniProt Q9BZE9 1-553),sequence count,PLAP (human),10
same,sequence coverage,PLAP (human),22.8%
same,spectrum count,PLAP (human),10
Flag-FAF1 (from UniProt Q9UNN5 1-650),abundance factor (AF),Cullin 1 (human) [1],9.1
same,sequence count,Cullin 1 (human) [1],6
same,spectrum count,Cullin 1 (human) [1],8
same,abundance factor (AF),Cullin 3 (human) [2],24.6
same,abundance factor (AF),[3],2.6
same,sequence count,[3],2
same,spectrum count,[3],2
same,abundance factor (AF),[4],8.3
same,sequence count,[4],6
same,spectrum count,[4],6
same,abundance factor (AF),Praja 2 (human),3.8
same,sequence count,Praja 2 (human),3
same,spectrum count,Praja 2 (human),3
same,abundance factor (AF),[5],1.6
same,sequence count,[5],9
same,spectrum count,[5],9
same,abundance factor (AF),SKP1 (human) [6],10.7
same,sequence count,SKP1 (human) [6],2
same,spectrum count,SKP1 (human) [6],2
same,abundance factor (AF),UBR1 (human),1
same,sequence count,UBR1 (human),2
same,spectrum count,UBR1 (human),2
same,abundance factor (AF),UBR2 (human) [7],2
same,sequence count,UBR2 (human) [7],4
same,spectrum count,UBR2 (human) [7],4
same,abundance factor (AF),gp78 (human) [8],2.7
same,sequence count,gp78 (human) [8],2
same,spectrum count,gp78 (human) [8],2
same,abundance factor (AF),[9],8.9
same,sequence count,[9],5
same,spectrum count,[9],5
same,abundance factor (AF),Cullin 1 (human) [10],8.4
same,sequence count,Cullin 1 (human) [10],5
same,spectrum count,Cullin 1 (human) [10],7
same,abundance factor (AF),Cullin 2 (human),7.2
same,sequence count,Cullin 2 (human),6
same,spectrum count,Cullin 2 (human),6
same,abundance factor (AF),Cullin 3 (human) [11],14.1
same,sequence count,Cullin 3 (human) [11],12
same,spectrum count,Cullin 3 (human) [11],12
same,abundance factor (AF),[12],3.4
same,sequence count,[12],2
same,spectrum count,[12],2
same,abundance factor (AF),[13],11.7
same,sequence count,[13],8
same,spectrum count,[13],8
same,abundance factor (AF),[14],10.2
same,sequence count,[14],47
same,spectrum count,[14],56
same,abundance factor (AF),SKP1 (human) [15],33.6
same,sequence count,SKP1 (human) [15],4
same,spectrum count,SKP1 (human) [15],6
same,abundance factor (AF),UBR2 (human) [16],1
same,sequence count,UBR2 (human) [16],2
same,spectrum count,UBR2 (human) [16],2
same,abundance factor (AF),gp78 (human) [17],8.6
same,sequence count,gp78 (human) [17],4
same,spectrum count,gp78 (human) [17],6
same,sequence count,PLAP (human),2
same,sequence coverage,PLAP (human),4.8%
same,spectrum count,PLAP (human),2
same,sequence count,VCIP135 (human),5
same,sequence coverage,VCIP135 (human),5.9%
same,spectrum count,VCIP135 (human),5
Flag-UBXD1 (from UniProt Q9BZV1 1-441),sequence count,PLAP (human),3
same,sequence coverage,PLAP (human),7.5%
same,spectrum count,PLAP (human),3
same,sequence count,VCIP135 (human),2
same,sequence coverage,VCIP135 (human),2.5%
same,spectrum count,VCIP135 (human),2
Flag-UBXD3 (from UniProt Q96LJ8 1-280),sequence count,endogenous NPL4 (human),7
same,sequence coverage,endogenous NPL4 (human),14.1%
same,spectrum count,endogenous NPL4 (human),9
same,sequence count,endogenous UFD1 (human),3
same,sequence coverage,endogenous UFD1 (human),12.2%
same,spectrum count,endogenous UFD1 (human),3
Flag-UBXD5,sequence count,PLAP (human),6
same,sequence coverage,PLAP (human),11.6%
same,spectrum count,PLAP (human),6
same,sequence count,VCIP135 (human),20
same,sequence coverage,VCIP135 (human),27.5%
same,spectrum count,VCIP135 (human),25
same,sequence count,endogenous NPL4 (human),2
same,sequence coverage,endogenous NPL4 (human),5.2%
same,spectrum count,endogenous NPL4 (human),3
same,sequence count,endogenous p97 (human),124
same,sequence coverage,endogenous p97 (human),75.5%
same,spectrum count,endogenous p97 (human),783
Flag-UBXD6 (from UniProt O00124 1-270),sequence count,VCIP135 (human),2
same,sequence coverage,VCIP135 (human),2.7%
same,spectrum count,VCIP135 (human),2
same,sequence count,endogenous NPL4 (human),9
same,sequence coverage,endogenous NPL4 (human),16.5%
same,spectrum count,endogenous NPL4 (human),16
same,sequence count,endogenous UFD1 (human),4
same,sequence coverage,endogenous UFD1 (human),19.2%
same,spectrum count,endogenous UFD1 (human),5
Flag-p47 (from UniProt O35987 1-370),abundance factor (AF),[18],0.5
same,sequence count,[18],2
same,spectrum count,[18],2
same,abundance factor (AF),EDD1/UBR5 (human),0.2
same,sequence count,EDD1/UBR5 (human),2
same,spectrum count,EDD1/UBR5 (human),2
same,abundance factor (AF),[19],1.5
same,sequence count,[19],3
same,spectrum count,[19],3
same,abundance factor (AF),[20],1.1
same,sequence count,[20],5
same,spectrum count,[20],5
same,abundance factor (AF),Cullin 2 (human),1
same,sequence count,Cullin 2 (human),2
same,spectrum count,Cullin 2 (human),2
same,abundance factor (AF),[21],1
same,sequence count,[21],3
same,spectrum count,[21],3
same,abundance factor (AF),[14],0.2
same,sequence count,[14],2
same,spectrum count,[14],3
same,abundance factor (AF),[22],1.4
same,sequence count,[22],5
same,spectrum count,[22],5
same,abundance factor (AF),gp78 (human) [17],1.7
same,sequence count,gp78 (human) [17],3
same,spectrum count,gp78 (human) [17],3
same,sequence count,PLAP (human),27
same,sequence coverage,PLAP (human),42.9%
same,spectrum count,PLAP (human),38
endogenous FAF1 (from UniProt Q9UNN5 1-650),sequence count,p97-Myc,7
same,sequence coverage,p97-Myc,8.2%
same,spectrum count,p97-Myc,11
